We go through 11 molecules from patent US20250333467A1 (TECTONIC OPERATING, published 2025).

The assay concerns the target T1, human RXFP1 (human, UniProt Q9HBX9 1-757).
T1 sequence (looked up): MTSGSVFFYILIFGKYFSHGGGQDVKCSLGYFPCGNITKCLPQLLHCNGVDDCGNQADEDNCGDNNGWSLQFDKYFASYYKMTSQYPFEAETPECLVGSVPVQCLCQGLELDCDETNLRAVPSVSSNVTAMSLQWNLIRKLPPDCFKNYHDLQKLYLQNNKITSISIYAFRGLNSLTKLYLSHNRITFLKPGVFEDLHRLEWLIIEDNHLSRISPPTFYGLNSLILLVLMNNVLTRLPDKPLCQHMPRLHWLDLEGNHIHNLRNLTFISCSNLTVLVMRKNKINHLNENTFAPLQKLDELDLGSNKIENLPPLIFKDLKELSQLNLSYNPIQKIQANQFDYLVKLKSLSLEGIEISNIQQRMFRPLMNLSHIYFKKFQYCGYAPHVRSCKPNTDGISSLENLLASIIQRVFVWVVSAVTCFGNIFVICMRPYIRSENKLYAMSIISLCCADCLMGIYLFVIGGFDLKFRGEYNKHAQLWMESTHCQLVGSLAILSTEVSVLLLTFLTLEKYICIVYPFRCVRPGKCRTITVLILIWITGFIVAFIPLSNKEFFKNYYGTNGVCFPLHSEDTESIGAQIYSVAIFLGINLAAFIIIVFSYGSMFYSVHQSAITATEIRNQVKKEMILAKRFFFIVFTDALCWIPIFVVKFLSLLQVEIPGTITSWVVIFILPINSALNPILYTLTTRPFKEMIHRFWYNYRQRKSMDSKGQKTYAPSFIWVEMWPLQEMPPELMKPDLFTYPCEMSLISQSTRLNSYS
The assay is described as follows: cell-based or functional assay.

Residue numbers refer to the chain shown, from its start.

B1: SEQ ID NO: 325 (Fc fusion)
chain: DKTHTCPPCPAPEAAGGPSVFLFPPKPKDTLMISRTPEVTCVVVDVSHEDPEVKFNWYVDGVEVHNAKTKPREEQYNSTYRVVSVLTVLHQDWLNGKEYKCKVSNKALAAPIEKTISKAKGQPREPQVYTLPPSRDELTKNQVSLTCLVKGFYPSDIAVEWESNGQPENNYKTTPPVLDSDGSFFLYSKLTVDKSRWQQGNVFSCSVLHEALHSHYTQKSLSLSPGGGSDSWQEEVIKLCGRELVRAQIAICGKSTGGGEEGGGEEGGGRQLYSALANKCCHVGCTKRSLAQFC
On to B1, for which the “Potency (cAMP, transient hRXFP1 in HEK293)” value (shortened to “Potency”) turned out to be 23.4 nM.

B2: SEQ ID NO: 328 (Fc fusion)
chain: B1 chain with G259E, E260G, G264E, E265G, G269S
With B2, the “Potency” value worked out at 41.9 nM.

B3: SEQ ID NO: 327 (Fc fusion)
chain: B1 chain with G259E, E260G, G264E, E265G, G269S, Q292R
B3: the “Potency” value was 9.3 nM.

B4: SEQ ID NO: 84 (Fc fusion)
chain: DKTHTCPPCPAPEAAGGPSVFLFPPKPKDTLMISRTPEVTCVVVDVSHEDPEVKFNWYVDGVEVHNAKTKPREEQYNSTYRVVSVLTVLHQDWLNGKEYKCKVSNKALAAPIEKTISKAKGQPREPQVYTLPPSRDELTKNQVSLTCLVKGFYPSDIAVEWESNGQPENNYKTTPPVLDSDGSFFLYSKLTVDKSRWQQGNVFSCSVLHEALHSHYTQKSLSLSPGKGGSDSWQEEVIKLCGRELVRAQIAICGKSTASDAAGADANAGARQLYSALANKCCHVGCTKRSLAQFC
Consider B4, for which the “Potency” value amounted to 1.9 nM.

B5: SEQ ID NO: 89 (Fc fusion)
chain: B4 chain with N267Q
In the case of B5, the “Potency” value came to 2.5 nM.

B6: SEQ ID NO: 92 (Fc fusion)
chain: B4 chain with K227E, D265N, N267D
As for B6, the “Potency” value worked out at 4.3 nM.

B7: SEQ ID NO: 85 (Fc fusion)
chain: B4 chain with D265N, N267D
With B7, the “Potency” value came out at 2 nM.

B8: SEQ ID NO: 88 (Fc fusion)
chain: B4 chain with D265Q, N267D
Turning to B8, the “Potency” value was 1.4 nM.

B9: SEQ ID NO: 319 (Fc fusion)
chain: DKTHTCPPCPAPEAAGGPSVFLFPPKPKDTLMISRTPEVTCVVVDVSHEDPEVKFNWYVDGVEVHNAKTKPREEQYNSTYRVVSVLTVLHQDWLNGKEYKCKVSNKALAAPIEKTISKAKGQPREPQVYTLPPSRDELTKNQVSLTCLVKGFYPSDIAVEWESNGQPENNYKTTPPVLDSDGSFFLYSKLTVDKSRWQQGNVFSCSVLHEALHSHYTQKSLSLSPGKGGSDSWQEEVIKLCGRELVRAQIAICGKSTGGGEEGGGEEGGGRQLYSALANKCCHVGCTKRSLARFC
As to B9, the “Potency” value came to 5.8 nM.

B10: SEQ ID NO: 326 (Fc fusion)
chain: B9 chain with G260E, E261G, G265E, E266G, G270S, R293Q
With B10, the “Potency” value is 18.9 nM.

B11: SEQ ID NO: 321 (Fc fusion)
chain: B9 chain with R293Q
Turning to B11, the “Potency” value was found to be 10.2 nM.
